{"source": "patent US12576141B2", "about": "(AlbuNext, LLC, priority 2023, dated 2026)", "key": {"GLP-1 receptor": {"molecular_target": "GLP-1 receptor (Homo sapiens, UniProt P43220)", "sequence (P43220 24-463, species assumed)": "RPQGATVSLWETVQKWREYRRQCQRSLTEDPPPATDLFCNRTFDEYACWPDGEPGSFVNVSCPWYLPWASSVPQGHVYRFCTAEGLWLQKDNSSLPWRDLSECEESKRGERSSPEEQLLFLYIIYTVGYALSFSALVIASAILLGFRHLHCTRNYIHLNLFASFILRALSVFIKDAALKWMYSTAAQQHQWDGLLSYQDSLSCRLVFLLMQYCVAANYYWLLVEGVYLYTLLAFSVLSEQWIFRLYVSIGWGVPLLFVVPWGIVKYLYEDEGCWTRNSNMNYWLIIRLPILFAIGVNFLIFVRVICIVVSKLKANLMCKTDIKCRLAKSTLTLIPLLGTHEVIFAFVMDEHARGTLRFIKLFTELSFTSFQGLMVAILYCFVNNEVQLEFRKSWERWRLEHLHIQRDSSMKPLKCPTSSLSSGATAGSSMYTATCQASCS", "conditions": "cited from earlier work"}, "[1]": {"conditions": "suitable for once weekly dosing; cited from earlier work"}, "[2]": {"conditions": "monotherapy, cited from earlier work"}, "Cys34 of rat albumin": {"molecular_target": "T1, Cys34 of rat albumin (Rattus norvegicus, UniProt P02770)", "T1 construct": "plasma samples collected from the rats that were injected s.c. and i.v; from tissue; host or cells: rat plasma (in vivo, circulating albumin)", "T1 sequence (P02770 25-608)": "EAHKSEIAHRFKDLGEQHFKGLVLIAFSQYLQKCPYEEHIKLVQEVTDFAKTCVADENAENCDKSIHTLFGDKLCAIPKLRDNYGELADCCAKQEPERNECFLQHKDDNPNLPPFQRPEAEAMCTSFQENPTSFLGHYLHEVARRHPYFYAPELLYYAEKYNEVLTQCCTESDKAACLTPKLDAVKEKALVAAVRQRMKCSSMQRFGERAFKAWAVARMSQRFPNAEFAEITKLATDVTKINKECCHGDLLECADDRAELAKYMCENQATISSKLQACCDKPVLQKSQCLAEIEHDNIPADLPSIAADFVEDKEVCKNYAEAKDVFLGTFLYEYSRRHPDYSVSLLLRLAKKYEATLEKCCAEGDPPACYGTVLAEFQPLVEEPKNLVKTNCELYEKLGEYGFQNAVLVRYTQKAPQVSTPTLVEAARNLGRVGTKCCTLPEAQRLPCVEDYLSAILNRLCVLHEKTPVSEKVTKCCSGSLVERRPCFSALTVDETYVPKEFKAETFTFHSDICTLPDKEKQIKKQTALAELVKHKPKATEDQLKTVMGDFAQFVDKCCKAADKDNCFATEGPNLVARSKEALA", "assay": "electrophoresis of plasma samples from injected rats (translocation to rat albumin)", "format": "in vivo", "method": "To further investigate the apparent inconsistencies supplementary electrophoresis experiments were conducted on the plasma samples collected from the rats that were injected s.c. and i.v. as noted above, and exemplary results are depicted in FIG. 30. As can be readily seen in the gel image, when conformationally unmodified AB-013 is tested in an electrophoresis experiment only one band is observed in the area where an albumin-exendin-4 MPA covalent construct would be observed. Completely unexpectedly, all time points taken during the experiment, including the earliest ones, had two bands in the area related to an albumin-exendin-4 MPA covalent construct.\nThis initial observation was further supported when a dynorphin-A-MPA peptide was injected intravenously to rats. Importantly, this dynorphin-A-MPA peptide was not conjugated to human albumin or any other type of albumin. […] In a similar fashion, the dynorphin-A-MPA peptide was also conjugated to human conformationally unmodified albumin in vitro to form a covalent bond between it and the Cys34 of human albumin. The dynorphin a human albumin covalent construct was injected intravenously to rats."}}}
{"substance": "albiglutide: albumin fusion protein in which a tandem repeat of Gly8 GLP-1 is fused to N-terminus of human serum albumin", "values": [{"measurement": "GLP-1 receptor affinity", "setting": "GLP-1 receptor", "value": 20, "unit": "nM"}, {"measurement": "half-life", "setting": "[1]", "value": "6 to 8", "unit": "days"}, {"measurement": "decrease in HbA1c from baseline", "setting": "[2]; 30 mg weekly dose, week 52", "value": "−0.7", "unit": "%"}, {"measurement": "change from baseline of HbA1c", "setting": "[2]; 50 mg weekly dose", "value": "−0.9", "unit": "%"}]}
{"substance": "dynorphin-A-MPA peptide: dynorphin-A-MPA peptide not conjugated to any albumin, injected for in vivo bioconjugation", "values": [{"measurement": "bands on electrophoresis gel in the area of the albumin covalent construct", "setting": "Cys34 of rat albumin; rat plasma, all time points", "value": "only one band"}, {"measurement": "bioconjugation in vivo with rat albumin", "setting": "Cys34 of rat albumin; rats, intravenous, peptide not conjugated to albumin", "value": "did indeed occur"}]}
